Measurements as given in publication PMC6901573.

Legend:
[1] = target: Human hemoglobin A, reduced oxygenated form (OxyHb) (human) (UniProt P69905); test: SEC; tetramer to dimers; HiLoad 16/600 Superdex 75 in reaction buffer (Tris/HCl 100 mM, NaCl 150 mM, EDTA 1 mM, pH 8.0); Hb in the oxy and met forms injected at different concentrations
[2] = target: Human hemoglobin A, oxidized form (methemoglobin, MetHb) (human) (UniProt P69905); test: as above

Substance | Kd [1] | Kd [2]
Human hemoglobin A, reduced oxygenated form (OxyHb), P69905 1-142; P68871 1-147 (complex; other documents disagree on this pair) | 250 nM | –
Human hemoglobin A, oxidized form (methemoglobin, MetHb), P69905 1-142; P68871 1-147 (complex; other documents disagree on this pair) | – | 520 nM
